In patent publication US20060029947A1 (University of Texas, published 2006):

Molecular target: Bacillus anthracis protective antigen (PA) (Bacillus anthracis, UniProt P13423 30-764)
Sequence (P13423 30-764 limits assumed): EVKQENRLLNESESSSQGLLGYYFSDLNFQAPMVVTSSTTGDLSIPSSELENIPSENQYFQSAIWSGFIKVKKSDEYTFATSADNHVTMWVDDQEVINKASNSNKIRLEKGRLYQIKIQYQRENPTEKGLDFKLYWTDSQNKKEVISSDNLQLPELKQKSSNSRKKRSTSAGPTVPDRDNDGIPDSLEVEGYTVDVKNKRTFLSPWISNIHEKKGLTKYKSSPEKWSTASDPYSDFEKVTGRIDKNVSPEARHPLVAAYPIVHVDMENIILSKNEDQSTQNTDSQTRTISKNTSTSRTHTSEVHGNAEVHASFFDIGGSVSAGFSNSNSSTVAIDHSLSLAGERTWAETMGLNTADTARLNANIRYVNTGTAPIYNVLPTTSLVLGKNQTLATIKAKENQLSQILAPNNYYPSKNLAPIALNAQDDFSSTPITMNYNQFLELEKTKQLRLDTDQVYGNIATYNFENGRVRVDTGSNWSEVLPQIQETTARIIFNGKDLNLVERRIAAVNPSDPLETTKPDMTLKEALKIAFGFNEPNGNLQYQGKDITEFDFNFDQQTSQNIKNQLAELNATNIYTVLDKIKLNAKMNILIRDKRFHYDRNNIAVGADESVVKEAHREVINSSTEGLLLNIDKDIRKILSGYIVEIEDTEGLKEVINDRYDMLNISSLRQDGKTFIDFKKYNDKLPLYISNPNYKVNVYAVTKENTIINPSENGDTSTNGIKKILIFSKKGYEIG

B1: M18 with the Q55L substitution, scAb (scFv)
chain: DIQMTQTTSSLSASLGDRVTVSCRASQDIRNYLNWYQQKPDGTVKFLIYYTSRLLPGVPSRFSGSGSGTDYSLTINNLEQEDIGTYFCQQGNTPPWTFGGGTKLEIKRGGGGSDGGGSGGGGSGGGGSEVQLQQSGPELVKPGASVKISCKDSGYAFNSSWMNWVKQRPGQGLEWIGRIYPGDGDSNYNGKFEGKAILTADKSSSTAYMQLSSLTSVDSAVYFCARSGLLRYAMDYWGQGTSVTVSS
  Kd: 0.021 nM
  koff: 2.4e-05 s⁻¹
  kon: 1.1e+06 M⁻¹ s⁻¹
